B1: CD40L: CD40 ligand (R&D; 100 ng/ml) used as DC activator (protein, UniProt P29965 113-261, looked up)
CD40 ligand, soluble form: MQKGDQNPQIAAHVISEASSKTTSVLQWAEKGYYTMSNNLVTLENGKQLTVKRQGLYYIYAQVTFCSNREASSQAPFIASLCLKSPGRFERILLRAANTHSSAKPCGQQSIHLGGVFELQPGASVFVNVTDPSQVSHGTGFTSFGLLKL

Tests used:
naïve CD8^+ T cells = assay: Quality of primed CD8+ T cells (effector molecules, cytokines) by DC activator; assay type: cell-based, human; settings: IFN-α DCs targeted with anti-DCIR-MART-1, Luminex, FIG. 7F
Protocol: Expansion of antigen-specific T cells in DC/T cell coculture: To assess the function of DCs in presenting FluMP- or MART-1-derived antigens, the present inventors used DCs from HLA-A201^+ donors. Cells were cultured with conjugates mAbs at the indicated concentration. Syngeneic purified CD8^+ T cells were cultured with the antigen-pulsed DCs at a DC/T ratio 1:20. CD40L (100 ng/ml; R&D) was added to the culture after 24 h to enhance crosspresentation by DCs^49. The cocultures were incubated at 37° C. for 8-10 days. IL-2 was added at 10 U/ml at day 3. Where indicated, DCs were activated with TLR agonists: LPS (10, 50 or 200 ng/ml; […]; Invivogen). The expansion of FluMP-, MART-1-, and HIV gag p24-specific CD8^+ T cells was evaluated using HLA-A201-FluMP (58-66) peptide ([…]) (SEQ ID NO: 1), HLA-A201-MART-1 (26-35) peptide ([…]) (SEQ ID NO: 2) and HLA-A201-p24 (151-155) peptide ([…]) (SEQ ID NO: 3)-tetramers, respectively (Beckman Coulter). For the assessment of crosspriming to multiple CD8^+ T cell-specific epitopes, CD34^+-derived DCs were incubated with anti-DCIR-p24 or IgG4-p24 fusion mAbs and cultured with CFSE-labeled CD8^+ T cells at a DC/T ratio 1:30. […] The secreted IFN-γ was measured in the culture supernatants by Luminex. […] Secretion of IFN-γ, TNF-α, IL-12p40, IL-4, IL-5 and IL-13 were measured in the supernatant after 40 h by Luminex. […]

blood HLA-A201^+ mDCs = assay type: cell-based, human; settings: mDCs targeted with anti-DCIR.doc-coh.FluMP; Poly I:C 5 μg/ml, LPS 50 ng/ml, CL075 1 μg/ml
Protocol: The specific-FluMP CD8^+ T cell response was measured after 8-10 days using HLA-A201-FluMP (58-66) tetramer.

CD1a^+ LCs = assay: DCIR-signaling effect on DC phenotype and activation (surface markers, cytokines); settings: stimulated 24 h
Protocol: DCIR-signaling effect on DC-function: CD34^+-derived DCs were cultured in anti-DCIR (clone 24A5 or 9E8) or isotype control coated plates in the presence or absence of CD40L (R&D; 100 ng/ml) or LPS (Invivogen; 50 ng/ml). After 24 h, cells were harvested and stained for surface phenotype. The secreted cytokines were analyzed by a multiplex bead assay (Luminex).

| Molecule | cytokines of DCIR-primed CD8^+ T cells according to the DC activator (naïve CD8^+ T cells) | effect of TLR agonist on FluMP-specific CD8^+ T cell response (blood HLA-A201^+ mDCs) | Mean fluorescence expression of CD40 (CD1a^+ LCs) | Mean fluorescence expression of CD80 (CD1a^+ LCs) | Mean fluorescence expression of CD86 (CD1a^+ LCs) | Mean fluorescence expression of HLA-ABC (CD1a^+ LCs) | Mean fluorescence expression of HLA-DR (CD1a^+ LCs) | Mean fluorescence expression of ICOS-L (CD1a^+ LCs) |
| --- | --- | --- | --- | --- | --- | --- | --- | --- |
| CCCc1nc2c(N)nc3ccccc3c2s1 [CL075, reference compound] | preferentially secrete IFN-γ and TNF-α with markedly reduced amounts of IL-4, IL-5 and IL-13 |  |  |  |  |  |  |  |
| Poly I:C |  | enhanced the FluMP-specific responses at low concentration of the targeting complex |  |  |  |  |  |  |
| B1 | high amounts of type 2 cytokines (IL-4, IL-5 and IL-13) |  | 31.8 | 241.0 | 294.0 | 108.0 | 1018.000 | 69.800 |

Source: US20110274653A1, “DENDRITIC CELL IMMUNORECEPTORS (DCIR)-MEDIATED CROSSPRIMING OF HUMAN CD8+ T CELLS” (priority 2010, published 2011)
